Test results as given in patent publication EP2402371A1.
Residue numbers refer to the chain shown, from its start.

B1: humanized anti-GPVI Fab VL1/VH1 (Fab, V domains shown)
VH: QVQLQESGPGLVAPSQSLSITCTVSGFSLTGYGVNWVRQPPSRGLEWLGMIWGDGSTDYQSTLKSRLSISKDTSKSQVFLKMNSLTTDDTARYYCARDLPMDYWGQGTSVTVSS
VL: DIQMTQSPSSLSASVGGRVTITCKASQDINKYIAWYQHKPGKGPSLLIHYTSTLQPGVPSRFSGSGSGRDYSFSISNLQPEDIATYYCLQYANLLTFGGGTKLEIKR
B2: humanized anti-GPVI Fab VL2/VH2 (Fab, V domains shown)
VH: B1 VH with T73N
VL: B1 VL with N93H
B3: humanized anti-GPVI Fab VL1/VH2 (Fab, V domains shown)
VH: B1 VH with T73N
VL: B1 VL
B4: humanized anti-GPVI Fab VL3/VH4 (Fab, V domains shown)
VH: B1 VH with G31Y, T73N
VL: B1 VL with N93L
B5: humanized anti-GPVI Fab VL3/VH2 (Fab, V domains shown)
VH: B1 VH with T73N
VL: B1 VL with N93L
B6: humanized anti-GPVI Fab VL1/VH4 (Fab, V domains shown)
VH: B1 VH with G31Y, T73N
VL: B1 VL
B7: humanized anti-GPVI Fab VL1/VH5 (Fab, V domains shown)
VH: B1 VH with T73N, Y103E
VL: B1 VL
B8: humanized anti-GPVI Fab VL1/VH3 (Fab, V domains shown)
VH: B1 VH with Q1E, Q5L, Q16G, S42G, R43K, T73N, T86R, Q106L
VL: B1 VL

biological target: extracellular domain of human GPVI (human) (UniProt Q9HCN6); experiment: SPR (Biacore 3000), human GPVI immobilised by amine coupling, Fab as analyte

Binder	Kd [nM]	koff [s⁻¹]	kon [M⁻¹ s⁻¹]
B1	0.4	4e-05	111000
B2	0.3	3e-05	108000
B3	0.2	3e-05	113000
B4	0.3	4e-05	151000
B5	0.2	3e-05	132000
B6	0.2	2e-05	124000
B7	0.4	3e-05	81000
B8	0.1	2e-05	148000
